From patent US20200088729 come the findings set out here.

Broadly, the Kd is the concentration at which binding is half-saturated.

Holding throughout (experiment): SPR
On the technique in general: Surface plasmon resonance follows binding to a sensor surface in real time, without labels.

For one series, the target named is EED (UniProt O75530). The conditions noted are these: HBS-EP+, 3.25 mM MgCl2, 25 C.
The target in another series is EZH2 (UniProt Q15910). Particulars: HBS-EP+, 3.25 mM MgCl2, 25 C.
Chain of EZH2 (Q15910 whole entry): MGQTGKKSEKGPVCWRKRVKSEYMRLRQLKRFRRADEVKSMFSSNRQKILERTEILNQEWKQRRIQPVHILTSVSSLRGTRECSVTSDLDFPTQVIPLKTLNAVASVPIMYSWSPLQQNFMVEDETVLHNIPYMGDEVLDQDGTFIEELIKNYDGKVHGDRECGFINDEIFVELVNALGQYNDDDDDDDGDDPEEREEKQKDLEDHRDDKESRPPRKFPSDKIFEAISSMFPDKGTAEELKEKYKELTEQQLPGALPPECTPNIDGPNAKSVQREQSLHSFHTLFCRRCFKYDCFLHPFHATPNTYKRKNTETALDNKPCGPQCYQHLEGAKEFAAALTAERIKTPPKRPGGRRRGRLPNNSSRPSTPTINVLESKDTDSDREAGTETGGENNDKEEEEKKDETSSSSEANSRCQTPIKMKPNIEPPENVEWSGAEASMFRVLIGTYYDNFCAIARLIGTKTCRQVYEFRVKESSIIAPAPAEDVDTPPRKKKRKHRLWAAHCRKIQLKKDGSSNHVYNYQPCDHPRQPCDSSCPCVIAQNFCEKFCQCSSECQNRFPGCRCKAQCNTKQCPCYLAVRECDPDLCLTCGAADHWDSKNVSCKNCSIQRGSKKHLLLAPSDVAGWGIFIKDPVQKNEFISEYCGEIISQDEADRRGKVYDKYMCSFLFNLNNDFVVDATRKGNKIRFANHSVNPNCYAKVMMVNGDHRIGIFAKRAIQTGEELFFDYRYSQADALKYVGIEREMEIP
For series [1], the target named is T1, HaloTag-DasherGFP-3xLambdaN-V5 (synthetic construct (lambda phage N peptide)) (UniProt P03045).
T1 sequence: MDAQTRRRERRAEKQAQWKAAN
Particulars: ka 29700 1/Ms, kd 0.0012 1/s; HBS-EP+, 3.25 mM MgCl2, 25 C.

In the next series the target is PTBP1 (UniProt P26599). The conditions noted are these: HBS-EP+, 3.25 mM MgCl2, 25 C.
Chain of PTBP1 (P26599 whole entry): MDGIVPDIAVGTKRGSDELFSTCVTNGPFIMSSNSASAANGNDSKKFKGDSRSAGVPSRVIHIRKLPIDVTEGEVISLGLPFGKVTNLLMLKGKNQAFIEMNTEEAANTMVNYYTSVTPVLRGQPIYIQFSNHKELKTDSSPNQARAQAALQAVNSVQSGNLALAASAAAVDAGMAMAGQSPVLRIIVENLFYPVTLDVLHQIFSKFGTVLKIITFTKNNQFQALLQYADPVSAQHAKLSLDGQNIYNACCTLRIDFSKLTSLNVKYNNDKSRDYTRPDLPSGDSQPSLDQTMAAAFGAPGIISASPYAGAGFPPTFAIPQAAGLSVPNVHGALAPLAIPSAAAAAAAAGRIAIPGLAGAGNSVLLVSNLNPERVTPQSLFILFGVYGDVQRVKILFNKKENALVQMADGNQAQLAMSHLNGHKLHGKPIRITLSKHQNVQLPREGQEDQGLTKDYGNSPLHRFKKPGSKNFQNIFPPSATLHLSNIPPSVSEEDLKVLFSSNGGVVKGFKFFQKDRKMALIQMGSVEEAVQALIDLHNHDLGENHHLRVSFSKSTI
A further series addresses SUZ12 (UniProt Q15022). The conditions noted are these: HBS-EP+, 3.25 mM MgCl2, 25 C.

Chain of EED (O75530 whole entry): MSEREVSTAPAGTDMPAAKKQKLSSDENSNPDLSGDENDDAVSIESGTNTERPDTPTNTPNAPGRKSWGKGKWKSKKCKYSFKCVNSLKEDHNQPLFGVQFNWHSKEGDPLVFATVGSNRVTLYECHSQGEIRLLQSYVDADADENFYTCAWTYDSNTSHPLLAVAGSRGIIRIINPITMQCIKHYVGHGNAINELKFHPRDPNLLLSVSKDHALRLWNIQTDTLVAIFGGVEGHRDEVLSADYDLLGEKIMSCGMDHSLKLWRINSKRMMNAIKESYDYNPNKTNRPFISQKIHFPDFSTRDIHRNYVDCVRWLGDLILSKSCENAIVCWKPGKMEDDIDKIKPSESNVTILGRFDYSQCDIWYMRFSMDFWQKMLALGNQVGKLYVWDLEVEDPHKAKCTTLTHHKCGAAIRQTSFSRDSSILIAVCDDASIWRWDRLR
Chain of SUZ12 (Q15022 whole entry): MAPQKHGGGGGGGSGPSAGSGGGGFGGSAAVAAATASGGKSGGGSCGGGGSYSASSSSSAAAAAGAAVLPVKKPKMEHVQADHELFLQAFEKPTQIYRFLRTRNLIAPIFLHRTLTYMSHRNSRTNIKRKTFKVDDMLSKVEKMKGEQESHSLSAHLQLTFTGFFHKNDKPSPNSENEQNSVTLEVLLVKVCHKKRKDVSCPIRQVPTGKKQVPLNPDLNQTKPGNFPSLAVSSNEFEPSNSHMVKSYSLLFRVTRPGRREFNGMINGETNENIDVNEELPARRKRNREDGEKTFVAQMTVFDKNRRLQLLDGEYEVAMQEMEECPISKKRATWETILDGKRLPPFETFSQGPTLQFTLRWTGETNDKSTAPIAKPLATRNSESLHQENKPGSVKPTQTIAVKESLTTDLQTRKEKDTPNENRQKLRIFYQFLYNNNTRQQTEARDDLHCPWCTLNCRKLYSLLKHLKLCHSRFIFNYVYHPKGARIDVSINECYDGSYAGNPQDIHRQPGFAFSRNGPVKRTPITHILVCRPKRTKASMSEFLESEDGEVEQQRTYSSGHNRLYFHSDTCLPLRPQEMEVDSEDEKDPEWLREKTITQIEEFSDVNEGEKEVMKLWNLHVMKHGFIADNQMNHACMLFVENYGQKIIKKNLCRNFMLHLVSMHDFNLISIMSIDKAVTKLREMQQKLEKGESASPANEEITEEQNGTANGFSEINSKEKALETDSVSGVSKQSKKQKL

As for MBP-5xBoxB RNA, the Kd in the series with EED (U-value 20) turned out to be 2.94 µM; with EZH2, 66 µM; in series [1], 0.0393 µM; with PTBP1 it was 0.104 µM; with SUZ12, 96.6 µM.

On to Xist A-repeat RNA, for which the Kd with EED was found to be 0.257 µM; with EZH2, 56 µM; with PTBP1, 0.261 µM; with SUZ12 (U-value 26 flagged with asterisk (poor fit)) it was 1.79 µM.

On to MBP RNA (nt 1-240), for which the equilibrium dissociation constant (Kd) in the series with EED was 1.63 µM; in the series with EZH2, 58.1 µM; with PTBP1 (U-value 20), 8.68 µM; with SUZ12, 1.35 µM.

For the substance Xist E-repeat RNA, the Kd with EED was determined as 1.1 µM; in the series with EZH2 (U-value 20) it was 13.2 µM; with PTBP1, 0.0596 µM; with SUZ12, 60.6 µM.
